The labels stand for the following.
B1: LINE1-mini (parent)
chain: GGCAGAGCUCAACACAGCGUGGCAAAGUGGCUGUGGCUAGACUGCC

Variants of B1 are the subject of this data set. Nature of the data set: self-cleavage, relative activity (ratio to wild type); higher = more cleavage; in vitro, sequencing; the parent is a self-cleaving ribozyme.
For the variant GGCGGAGCUCAACACAGCGUGGCAAAGUGGGUGUGGCUAGACUGCC, the self-cleavage came out at 0.31.

As to GGCGGAGCUCAACACAGCGUGGCAAAGUGGAUGUGGCUAGACUGCC, the self-cleavage came out at 0.12. For GGCGGAGCUCAACACAGCGUGGCAAAGUGGUUGUGGCUAGACUGCC, the self-cleavage was found to be 0.14. For GGCGGAGCUCAACACGGCGUGGCAAAGUGGCUGUGGCUAGACUGCC the value was 0.16; for GGCGGAGCUCAACACCGCGUGGCAAAGUGGCUGUGGCUAGACUGCC, 0.12; for GGCGGAGCUCAACACUGCGUGGCAAAGUGGCUGUGGCUAGACUGCC, 0.16. Then GGCCGAGCUCAACACAGCGUGGCAAAGUGGCUGUGGCUAGACUUCC, with 0.13; and GGCCGAGCUCAACACAGCGUGGCAAAGUGGCUGUGGCUAGACUCCC, with 0.12. For GGCCGAGCUCAACACAGCGUGGCAAAGUGGCUGUGGCUAGACUACC the value was 0.16; for GGCGGAGCUCAACACAGCGUGGCAACGUGGCUGUGGCUAGACUGCC, 0.63. On to GGCGGAGCUCAACACAGCGUGGCAAGGUGGCUGUGGCUAGACUGCC, for which the self-cleavage turned out to be 0.48.

With GGCGGAGCUCAACACAGCGUGGCAAUGUGGCUGUGGCUAGACUGCC, the self-cleavage worked out at 0.39. For GGCCGAGCUCAACACAGCGUGGCAAAGUGGCUGUGGCGAGACUGCC the value was 0.04; for GGCCGAGCUCAACACAGCGUGGCAAAGUGGCUGUGGCCAGACUGCC, 0.12; for GGCCGAGCUCAACACAGCGUGGCAAAGUGGCUGUGGCAAGACUGCC, 0.12. For GGCGGAGCUCAACACAGCGUGGCAAAGUGGCUGUGGCUAGACUGAC, the self-cleavage is 0.45.

With GGCGGAGCUCAACACAGCGUGGCAAAGUGGCUGUGGCUAGACUGGC, the self-cleavage turned out to be 0.37. Take GGCGGAGCUCAACACAGCGUGGCAAAGUGGCUGUGGCUAGACUGUC: the self-cleavage came to 0.6.

For the variant GGCGGAGCUCAAAACAGCGUGGCAAAGUGGCUGUGGCUAGACUGCC, the self-cleavage is 0.27. Regarding GGCGGAGCUCAAUACAGCGUGGCAAAGUGGCUGUGGCUAGACUGCC, the self-cleavage was found to be 0.23. For GGCGGAGCUCAAGACAGCGUGGCAAAGUGGCUGUGGCUAGACUGCC the value was 0.2. For GGCGGAGCUCAACACAGCGUGGCAAAGUGGCUGUGGCUUGACUGCC the value was 0.33; for GGCGGAGCUCAACACAGCGUGGCAAAGUGGCUGUGGCUCGACUGCC, 0.06; for GGCGGAGCUCAACACAGCGUGGCAAAGUGGCUGUGGCUGGACUGCC, 0.22. For GGCCGAGCACAACACAGCGUGGCAAAGUGGCUGUGGCUAGACUGCC the value was 0.18; for GGCCGAGCGCAACACAGCGUGGCAAAGUGGCUGUGGCUAGACUGCC, 0.24; for GGCCGAGCCCAACACAGCGUGGCAAAGUGGCUGUGGCUAGACUGCC, 0.04. In the case of GGCGGAGCUCAACAUAGCGUGGCAAAGUGGCUGUGGCUAGACUGCC, the self-cleavage was determined as 0.65.

With GGCGGAGCUCAACAAAGCGUGGCAAAGUGGCUGUGGCUAGACUGCC, the self-cleavage came to 0.08.

Take GGCGGAGCUCAACAGAGCGUGGCAAAGUGGCUGUGGCUAGACUGCC: the self-cleavage was 0.14. Turning to GGCGGAGCUCAACACAGCGUGGCAAAGUGGCUGUGGCUAGACUGCC, the self-cleavage came to 0.5. Then GGCGGAGCUCAACACAUCGUGGCAAAGUGGCUGUGGCUAGACUGCC, with 0.18; and GGCGGAGCUCAACACAACGUGGCAAAGUGGCUGUGGCUAGACUGCC, with 0.06; and GGCGGAGCUCAACACACCGUGGCAAAGUGGCUGUGGCUAGACUGCC, with 0.5. For the variant GGCGGAGCUCAACACAGCGUGGCACAGUGGCUGUGGCUAGACUGCC, the self-cleavage came out at 0.78. For GGCGGAGCUCAACACAGCGUGGCAGAGUGGCUGUGGCUAGACUGCC the value was 0.36; for GGCGGAGCUCAACACAGCGUGGCAUAGUGGCUGUGGCUAGACUGCC, 0.62. As to GGCCGAGCUCAACACAGCGUGGCAAAGUGGCUGCGGCUAGACUGCC, the self-cleavage came out at 0.15.

Regarding GGCCGAGCUCAACACAGCGUGGCAAAGUGGCUGGGGCUAGACUGCC, the self-cleavage turned out to be 0.02. Then GGCCGAGCUCAACACAGCGUGGCAAAGUGGCUGAGGCUAGACUGCC, with 0; and GGCCGAGCUCAACACAGCGUGGCAAAGGGGCUGUGGCUAGACUGCC, with 0.18. Then GGCCGAGCUCAACACAGCGUGGCAAAGAGGCUGUGGCUAGACUGCC, with 0.07. For GGCCGAGCUCAACACAGCGUGGCAAAGCGGCUGUGGCUAGACUGCC, the self-cleavage is 0.22. For GGCGUAGCUCAACACAGCGUGGCAAAGUGGCUGUGGCUAGACUGCC the value was 0.16; for GGCGCAGCUCAACACAGCGUGGCAAAGUGGCUGUGGCUAGACUGCC, 0.07; for GGCGAAGCUCAACACAGCGUGGCAAAGUGGCUGUGGCUAGACUGCC, 0.15. In the case of GGCGGAGCUCAACACAGCGUGGCAAAGUGGCUGUGGCUAGACUGCA, the self-cleavage was determined as 0.4.

Turning to GGCGGAGCUCAACACAGCGUGGCAAAGUGGCUGUGGCUAGACUGCU, the self-cleavage stood at 0.39. For GGCGGAGCUCAACACAGCGUGGCAAAGUGGCUGUGGCUAGACUGCG the value was 0.24; for GGCCGAGCUCAACACAGCGUGGCAAAGUGGCUGUGGCUACACUGCC, 0.12; for GGCCGAGCUCAACACAGCGUGGCAAAGUGGCUGUGGCUAAACUGCC, 0.16.

Take GGCCGAGCUCAACACAGCGUGGCAAAGUGGCUGUGGCUAUACUGCC: the self-cleavage amounted to 0.13. For GGCGGAGCUCUACACAGCGUGGCAAAGUGGCUGUGGCUAGACUGCC the value was 0.05.

As to GGCGGAGCUCCACACAGCGUGGCAAAGUGGCUGUGGCUAGACUGCC, the self-cleavage was 0.04.

For GGCGGAGCUCGACACAGCGUGGCAAAGUGGCUGUGGCUAGACUGCC, the self-cleavage came out at 0.12. Then GGCGGAGCUCAACACAGCGUGGCAAAGUGGCUGUGGCUAGAGUGCC, with 0.02.

The record behind these values is the RNAGym collection of RNA variant scans (doi:10.7554/elife.90254).
